Measured values reported in the supplement of paper PMC12764529.
± gives the half width of the 95% confidence interval.

What was measured:
[1] = folding stability dG unfold from chymotrypsin proteolysis; higher = more stable
Outline: (§1)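 Unfolding free energy was derived, per protease or combined, against a sequence-predicted unfolded-state K50 and a shared folded-state K50, starting from K50 inferred by Bayesian fitting of sequencing counts. Digestion with trypsin and chymotrypsin was carried out on designed mini-proteins under 80 residues without cysteine in a PA-tagged cDNA display construct. Only designs with AlphaFold2 dimer inter-PAE above 15 were kept.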

[2] = folding stability dG unfold (combined trypsin and chymotrypsin); higher = more stable
Outline: as §1

[3] = folding stability dG unfold from trypsin proteolysis; higher = more stable
Outline: as §1

Sequence | folding stability dG unfold [1] [kcal/mol] | folding stability dG unfold [2] [kcal/mol] | folding stability dG unfold [3] [kcal/mol]
SAGGSAIKIIPNGDGIYIKIWFNNQPHPIPIESPEDAEEQVKSILDKFQKRNGMDIPEDMKVEIYPSAGGSA [r15_496_TrROS] | 1.12 ± 0.14 | 0.994 ± 0.2 | 0.419 ± 0.054
SAGGSAGGSAKPPVTLTILVKNPETGEWVRLEVEFLPDGTVKITVTNPNGEKYTFTFKLPPSAGGSAGGSAG [r3_61_TrROS_Hall] | 5.6 ± 0.16 | 5.6 ± 0.27 | 3.67 ± 0.18
SAGGSAGGGGTLTIEVDAPAGAKKINIELPGGTVSNLSYDPSTGKATIPFDTPEQAKAVEALVGSAGGSAGG [r6_745_TrMRF] | 0.098 ± 0.088 | -0.086 ± 0.058 | -0.493 ± 0.097
SAGGSAGGSPNTVPIPIRVEWYDPKDGEPKDEHPFNINFKTEEEAEDIIDNIAPDHPGMKIEISAGGSAGGS [r12_1043_TrROS] | -0.322 ± 0.11 | 0.0133 ± 0.14 | 0.233 ± 0.096
SAGGSAGGSKTVTLTLTLPGKKITFTLTEDGTVRMTVYNEKTGEKVKEITVPAKNLEELLKALSAGGSAGGS [r20_129_TrROS_Hall] | 4.63 ± 0.064 | 4.29 ± 0.066 | 3.02 ± 0.085
SAGGSAGGSMVPGKLLVTITDPNNGLTTTLDLPLEVKTEEDIEAEVQKIKEENPGKKVSVKLLSAGGSAGGS [r12_65_JUSTAS] | 1.687 ± 0.013 | 1.69 ± 0.054 | 1.65 ± 0.057
SARILRVEFEPFPLTERARLRLEVEDEDNDFPYEVDIELEVLPDPSEVRLRLVVRRPDGSRRELELRLFSAG [r14_10_TrMRF] | 4.97 ± 0.091 | 4.23 ± 0.091 | 3.56 ± 0.086
SMVVVKVTASSPEEAEALAKEAEEKLKEEIEKKIKELKKKGINPKELNLNIKIEIETLSYDPANPGKNTPSA [r9_961_JUSTAS] | 0.998 ± 0.066 | 0.827 ± 0.13 | 0.484 ± 0.039
SAGGSAGGTLKELIDNITRVDPENGKQRMRIPGGAEIEINPEEGQIKIRYYHPGKPQEITLPLPSAGGSAGG [r6_793_TrROS] | 0.776 ± 0.24 | 0.651 ± 0.31 | 0.46 ± 0.25
SAGGSAGGSAGGKKIRIVVPKENLEKIEELAKKLGPDVKIVKVEYFKETDYVVVEVEVKSAGGSAGGSAGGS [r10_23_TrROS_Hall] | 1.98 ± 0.075 | 2.11 ± 0.086 | 2.16 ± 0.06
SAGGFIRIETPNGKKISPEVREEAEEAIRDGDWDDAVKKISDWLRERFGHPMPIKIEVMMPPPKPPKSAGGS [r8_48_TrROS] | 1.19 ± 0.11 | 0.995 ± 0.18 | 0.547 ± 0.061
SAGGSAGGSAGGPDWRMISIPITFRFYVMEYDGGKPKKAEPIHEHPIPIMIMFPPDALKSAGGSAGGSAGGS [r10_492_TrROS] | 3.35 ± 0.014 | 2.91 ± 0.07 | 1.87 ± 0.032
SAGGSAGGSFKAPPGEKYVLKLRSPENGQEFMVEFTPDNIKISNPNDEKMPFPPDDITDVKDVSAGGSAGGS [r20_35_TrROS] | 0.0465 ± 0.24 | -0.109 ± 0.17 | -0.612 ± 0.33
SIIVEPLPDNTFIAYFPETDSVIEIRVDPSTGKAHAIAELPGEPVEATFDPRKGVLVIELPNGRIVLPLLSA [r9_541_TrMRF] | 1.7 ± 0.065 | 2.01 ± 0.088 | 2.28 ± 0.051
SAGGSAGGSAKVKAEIEYDPATGKITIKLITEDERGGKTEEAEITIPIPIPAPPAPPADVDKSAGGSAGGSA [r18_361_TrMRF] | 1.69 ± 0.15 | 1.27 ± 0.12 | -0.0238 ± 0.12
SAGKKKTVTIYLRVETPEEARKLVEELAKKLGAEVTSVEIEKVDGKYYVTVTIKVDGKEIKIVIEFEPSAGG [r19_262_TrROS_Hall] | 3.03 ± 0.031 | 2.67 ± 0.087 | 2.04 ± 0.045
SAGPVVTLTVTVEIEVDGVRVEVTVTATLLPDGTVVITATVKVTLPNGETKTVTVTLTFPPGVDEVVLTSAG [r5_829_TrROS_Hall] | 3.42 ± 0.18 | 3.06 ± 0.25 | 2.62 ± 0.15
SAGGSAGGSAKKVVTVPEDATLEEIEELLKSGEKVTVVIHNKETGKTETLEFDSLEELKAASAGGSAGGSAG [r3_362_TrROS_Hall] | 1.91 ± 0.16 | 1.53 ± 0.17 | 0.601 ± 0.072
SASITIPVDELKDFAEHFPGFNVGVNPETGMFQIFFPENGWMINIDIEVDPDDPDTIEIDIEIYPMPPNSAG [r14_604_TrROS] | 2.96 ± 0.15 | 2.57 ± 0.37 | 1.78 ± 0.13
SAGGSAGGSAGMRIVLRLPRDVPLEALRRELEALGGEVRIETEDDPDGRLLFVVELRPKESAGGSAGGSAGG [r11_1050_TrMRF] | 1.81 ± 0.14 | 1.8 ± 0.14 | 1.63 ± 0.061
SMLVSVTFPLTLEPEEGDHTVRIYATAPDGSSLGEVTAPVKAVGDKVEFEVTATFPLPEGAVIERIETEPSA [r9_292_TrMRF] | 0.857 ± 0.12 | 0.869 ± 0.084 | 0.681 ± 0.025

Sequence | folding stability dG unfold [1] [kcal/mol] | folding stability dG unfold [2] [kcal/mol] | folding stability dG unfold [3] [kcal/mol]
SAGITLHPDARIILKNPSTGEKIELRSETIRRLIAEILGTDRPEEITAEQINAFALSLGFEEAEFEEPSAGG [r19_67_TrMRF] | 3.312 ± 0.011 | 3.02 ± 0.045 | 2.29 ± 0.031
SAGGSAKIKIPKSYTAEILDASYDPETKTVTVKIKLFGKPATATIYPDGTVEIDLPNGKKITIPVGSAGGSA [r15_111_TrMRF] | 2.62 ± 0.04 | 2.27 ± 0.099 | 1.47 ± 0.083
SAGGSAMLKVTERTVEVEVFDEEGNPIGWRERKIVVEDPLSPEPRPPPPPVDPVLAAETLGADVLESAGGSA [r15_572_JUSTAS] | 0.543 ± 0.21 | 0.393 ± 0.14 | -0.0577 ± 0.14
SAGGSAGGSAGGKVITVELPDDVTVTFFIPEDPDIVPVEVTPPDGSTLTLPAKDIRELLGSAGGSAGGSAGG [r7_769_TrMRF] | 0.49 ± 0.12 | 0.364 ± 0.1 | 0.159 ± 0.049
ATVTVEKLPDGYRVTVTIGATYIDPETGKPVELSAPVTAFVPPEVPDPEVAAKRAAAEALAEFLAALPEGGS [r1_414_TrMRF] | 1.74 ± 0.023 | 1.85 ± 0.091 | 2 ± 0.057
SAMIEIEIEVEEREDGRLIVRVRIRNKETGEEIELELEMSREEVEKLLEELKKLFPNLEIVEVEIRELPSAG [r14_969_TrROS_Hall] | 3.29 ± 0.24 | 3.98 ± 0.45 | 4 ± 0.15
SAGGSMKPSKVTEVTHPDGTRFTVTEYPEVPLLTLTIERPETGTTTTVKTKSREEAEKVLAELVASSAGGSA [r2_70_JUSTAS] | 0.306 ± 0.16 | 0.596 ± 0.11 | 0.696 ± 0.068
SAGGMKKVRLTLVFESEEEALEALRKALEEAGVEVKVVRVERLPDGRVVVTVEIEVSDEVLEALKAASAGGS [r8_357_TrROS_Hall] | 4.01 ± 0.053 | 3.91 ± 0.056 | 3.77 ± 0.068
SAGGSAGGSAGGLVLRGPNDSLLFVLYNPDTGLAVFYNPATNQLLVVNLPLPKPKPSELLSAGGSAGGSAGG [r7_383_TrMRF] | 2.81 ± 0.049 | 2.68 ± 0.15 | 2.38 ± 0.089
SAGPADPGFLGTRTVPHPDGVVTVDVYRFAGTRVLITITLPDSTVPVEDPVESEEEALAFADAVVAEVGLSA [r9_758_JUSTAS] | 2.27 ± 0.037 | 1.66 ± 0.1 | 0.637 ± 0.081
SAGGSAGGSAMPGQKVRLTDELKKAGLEIEEAEVVEVDGKLYIRVNGKIIEIDADAIEEIEPSAGGSAGGSA [r18_445_TrROS_Hall] | 1.43 ± 0.037 | 1.11 ± 0.1 | 0.366 ± 0.13
EKYIVKIKITVRRKVETETLPDGSKKTRYETKTLEIEIEVSLEELKKLLEELNLPEDEITSVEIEVYPEEES [r1_351_TrROS_Hall] | 4.58 ± 0.32 | 4.31 ± 0.73 | 3.3 ± 0.24
SAGGSAGGSAMLVIRVVTEDGEEREIEIPEGEELTLEEILAALRTPDGREVPIERVEIFPASAGGSAGGSAG [r3_465_TrROS_Hall] | 1.75 ± 0.029 | 1.84 ± 0.11 | 2.04 ± 0.046
SAMPIPNKNVVIRAKRSPDGTWDLTITVDNEKLGSKKAKTEEELKALVEEIAKEIAEKLGPGNVTVVEESAG [r14_791_JUSTAS] | 2.54 ± 0.15 | 2.69 ± 0.22 | 2.74 ± 0.28
SAGGSAGGRLEPITEEEALELARLLAEYIRRLFPGDPRPHLVVVPILVPTPEDGYRLFLAVIAESAGGSAGG [r6_844_TrMRF] | 4.1 ± 0.039 | 3.73 ± 0.067 | 2.74 ± 0.079
SAGGSMKPVKKTIVILKPSSVTEEEVKEEVVEKAKELGLKVKPIRTEVYPLPDYYLVVVEVEIEVPPESAGG [r13_351_TrMRF] | 1.24 ± 0.072 | 1.38 ± 0.21 | 1.56 ± 0.11
SAGGSAGGSPEVLASFPLKDGSVVIVARRPGEIRVLVVKSSDLENIPELKDIKVFPTFGDDPVSAGGSAGGS [r12_343_TrMRF] | 1.18 ± 0.077 | 1.19 ± 0.05 | 1.03 ± 0.041
SAGGSAGGSAGVEINIFMPSWEQAKHRAKSIARELRERGLPPNAEIKIKIHPIDPEDMGPSAGGSAGGSAGG [r17_180_TrROS] | -0.576 ± 0.15 | -0.226 ± 0.25 | -0.0827 ± 0.13
SAGGSMEVKVEVVKDEETKEYYVKVEIRDPKTKKTITLEYKVKEEDKEEALKKAKELAEELAKKGISAGGSA [r2_221_TrROS_Hall] | 3.64 ± 0.077 | 3.48 ± 0.1 | 3.27 ± 0.14
SASISVASPEEAEKIAKELKEKYGAKSVKIEPLPEPLVKVTIEFEVPLENGKTATRKIVLLFSSDGKEESAG [r14_420_TrMRF] | 2.715 ± 0.016 | 2.44 ± 0.074 | 1.87 ± 0.044
SAGGSAGGSAGGAAPDDVKIEIEWDVGVMTMEMMNPGGQPHKMYMIMVSLKIEIEPNADSAGGSAGGSAGGS [r10_1212_TrROS] | 5.09 ± 0.18 | 4.95 ± 0.18 | 3.74 ± 0.25
